Source: patent US20170112908A1

Target: polyclonal antibodies in mouse sera specific for human PCSK9 aa 153-162 or aa 153-165
Test: competition ELISA, 20 ug peptide with sera, plate coated with m2 (competitor)

| Binder | % Competition compared to the related control group [%] |
| --- | --- |
| AIPWNLERIT | 88 |
| SIPWNLERITPPL | 66 |
| VIPWNLERLT | 54 |
| VIPWNLERTT | 69 |
| VIPWNLERIL | 49 |
| VIPWNLERIQ | 47 |
| SVPWNLERLT | 57 |
| SVPWNLERTT | 73 |
| SVPWNLERIL | 59 |
| SVPWNLERIQ | 61 |
| SQPWNLERLT | 69 |
| SVPWNLERIT | 62 |
| SQPWNLERIL | 69 |
| SQPWNLERIQ | 66 |
| SIPWSLERIQ | 44 |
| VQPWSLERTL | 48 |
| SQPWSLERTL | 53 |

| Binder | % Competition compared to the related control group [%] |
| --- | --- |
| SVPWNLEKLT | 11 |
| SQPWNLERIT | 30 |
| VQPWSLERLL | 66 |
| SVPWSLERLT | 74 |
| SGPWNLERITPPR | 54 |
| SITWNLERIT | 62 |
| SIAWNLERIT | 78 |
| SIVWNLERITPPR | 78 |
| SIPANLERIT | 8 |
| SIPGNLERIT | 0 |
| SIPHNLERIT | 0 |
| SIPDNLERIT | 3 |
| SIPSNLERIT | 7 |
| SIPWSLERIT | 73 |
| SIPWALERIT | 75 |
| SIPWQLERITPPR | 79 |

Other lines, results leading:

| % Competition compared to the related control group [%] | Binder |
| --- | --- |
| 0 | ERTKSDPGAQHREF |
| 0 | ITELSRWPNI |
| 74 | SIPWDLERITPPR |
| 73 | SIPWNAERIT |
| 52 | SIPWNGERIT |
| 71 | SIPWNDERIT |
| 79 | SIPWNFERITPPR |
| 78 | SIPWNVERITPPR |
| 13 | SIPWNLARIT |
| 52 | TIPWNLERIT |
| 53 | SIPWNLDRITPPR |
| 13 | SIPWNLEDIT |
| 73 | SIPWNLERTT |
| 77 | SIPWNLERAT |
| 56 | SIPWNLERIL |
| 80 | SIPWNLERIA |
| 51 | VIPWNLERIT |
| 79 | SIPWNLERISPPR |
| 70 | SIPWNLERITAPR |
| 74 | SIPWNLERITPAR |
| 75 | SIPWNLERITPVR |
| 73 | SIPWNLERITPTR |
| 70 | SIPWNLERITPNR |
| 65 | SIPWNLERITPPA |
| 66 | SIPWNLERITPPK |
| 66 | SIPWNLERITPPS |
